The record followed here is publication PMC4368798, “Protein-Binding RNA Aptamers Affect Molecular Interactions Distantly from Their Binding Sites”.

Data set [1] deals with T1, pro-uPA wild type;uPAR (Homo sapiens;Homo sapiens, UniProt P00749;Q03405 21-431;23-305, |). The data set is described as follows: SPR; 100 nM aptamer on captured pro-uPA:uPAR; SPR: HBS (20 mM HEPES, 140 mM NaCl, pH 7.4), 2 mM MgCl2, 0.1% BSA, 0.005% Tween 20, temperature not stated; SAXS: HBS, 2 mM MgCl2, 25 C. Particulars: protein: recombinant;recombinant; tags: ;; copies: 1;1. On the technique in general: SPR reads the build-up and loss of mass on a sensor chip optically.
T1 sequence (Q03405 23-305, chain 2 of 2, other chains not shown): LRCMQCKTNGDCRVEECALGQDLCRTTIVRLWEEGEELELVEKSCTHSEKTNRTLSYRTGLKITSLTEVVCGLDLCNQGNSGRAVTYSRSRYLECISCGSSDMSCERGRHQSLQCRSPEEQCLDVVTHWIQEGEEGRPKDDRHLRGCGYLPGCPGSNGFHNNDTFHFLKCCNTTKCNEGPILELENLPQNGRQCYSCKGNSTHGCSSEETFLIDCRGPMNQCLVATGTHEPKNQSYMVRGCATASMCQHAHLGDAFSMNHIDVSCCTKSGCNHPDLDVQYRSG

For data set [2], the target named is T2, pro-uPA wild type (Homo sapiens, UniProt P00749 21-431). The data set can be described thus: competition, 125I-pro-uPA cell binding; U937 cells, 1 h, 4 C; effect lost on prolonged incubation; SPR: HBS (20 mM HEPES, 140 mM NaCl, pH 7.4), 2 mM MgCl2, 0.1% BSA, 0.005% Tween 20, temperature not stated; SAXS: HBS, 2 mM MgCl2, 25 C. Conditions: protein: recombinant.

A further data set deals with pro-uPA Y284/127A (Homo sapiens, UniProt P00749 21-431, Y304A). The data set can be described thus: SPR competition; still inhibits uPAR binding (data not shown); SPR: HBS (20 mM HEPES, 140 mM NaCl, pH 7.4), 2 mM MgCl2, 0.1% BSA, 0.005% Tween 20, temperature not stated; SAXS: HBS, 2 mM MgCl2, 25 C. Conditions: protein: recombinant; 79 nt.
The next data set addresses pro-uPA R391/231A (Homo sapiens, UniProt P00749 21-431, R411A). The description is as above. Particulars: protein: recombinant; 79 nt.
In the next data set the target is ATF of uPA (UniProt P00749 21-151). The data set is described as follows: SPR competition; inhibition of 4 nM ATF binding to immobilized uPAR; SPR: HBS (20 mM HEPES, 140 mM NaCl, pH 7.4), 2 mM MgCl2, 0.1% BSA, 0.005% Tween 20, temperature not stated; SAXS: HBS, 2 mM MgCl2, 25 C. Conditions: protein: commercial; 79 nt.
The target of another data set is T3, GFD of uPA (Homo sapiens, UniProt P00749 24-63).
T3 chain: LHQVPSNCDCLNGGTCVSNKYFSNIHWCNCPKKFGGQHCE
The data set can be described thus: SPR competition; 50 nM aptamer; no inhibition of GFD binding to uPAR; SPR: HBS (20 mM HEPES, 140 mM NaCl, pH 7.4), 2 mM MgCl2, 0.1% BSA, 0.005% Tween 20, temperature not stated; SAXS: HBS, 2 mM MgCl2, 25 C. Conditions: protein: recombinant; 79 nt.

In data set [3] the target is T2, pro-uPA wild type. The data set is described as follows: SPR competition; inhibition of 4 nM pro-uPA binding to immobilized uPAR; SPR: HBS (20 mM HEPES, 140 mM NaCl, pH 7.4), 2 mM MgCl2, 0.1% BSA, 0.005% Tween 20, temperature not stated; SAXS: HBS, 2 mM MgCl2, 25 C. Particulars: protein: recombinant; 79 nt.
Data set [4] concerns the target T1, pro-uPA wild type;uPAR. The data set is described as follows: SPR competition; 200 nM control RNA; no significant effect on vitronectin binding; SPR: HBS (20 mM HEPES, 140 mM NaCl, pH 7.4), 2 mM MgCl2, 0.1% BSA, 0.005% Tween 20, temperature not stated; SAXS: HBS, 2 mM MgCl2, 25 C. Conditions: protein: recombinant;recombinant; tags: ;; copies: 1;1.
The target in data set [5] is T2, pro-uPA wild type. The data set is described as follows: SPR competition; up to 200 nM control RNA; no effect on pro-uPA binding to LRP-1A; SPR: HBS (20 mM HEPES, 140 mM NaCl, pH 7.4), 2 mM MgCl2, 0.1% BSA, 0.005% Tween 20, temperature not stated; SAXS: HBS, 2 mM MgCl2, 25 C. Conditions: protein: recombinant.

B1: upanap-126 (XNA)
RNA: GGGGCCACCAACGACAUUCAUUCGCACGCUGUGUGGGGAUUAGUCCCGAUGUUGUUGAUAUAAAUAGUGCCCAUGGAUC
modifications: 2'-fluoro pyrimidines (2'-F-C, 2'-F-U)
For orientation: IC50 means the concentration at which inhibition is half-maximal. In the case of B1, the binding result with pro-uPA wild type;uPAR [1] is “binds”. Also, the IC50 with pro-uPA wild type [2] was roughly 500 nM.

B2: upanap-12 (XNA)
RNA: GGGGCCACCAACGACAUUUGCGACUGUUAUAACCUAACAGCGACGUAAAGAUAGUUGAUAUAAAUAGUGCCCAUGGAUC
modifications: 2'-fluoro pyrimidines (2'-F-C, 2'-F-U)
B2: the values for the binding result in the data set with pro-uPA Y284/127A, with pro-uPA R391/231A and with GFD of uPA were “binds”, “binds” and “no binding”, respectively. For the same molecule, the concentration for half-maximal inhibition (IC50) in the data set with ATF of uPA stood at 1.8 ± 0.2 nM; with pro-uPA wild type [3] it was 2.2 ± 0.1 nM.

B3: control RNA (XNA)
RNA: GGGGCCACCAACGACAUUAACUCACGUUGCAACUAAUACGCUGAGUGGAAACCGUUGAUAUAAAUAGUGCCCAUGGAUC
modifications: 2'-fluoro pyrimidines (2'-F-C, 2'-F-U)
As for B3, the binding result in the data set with pro-uPA wild type;uPAR [4] and in the data set with pro-uPA wild type [5] was “no binding” in each case.
